Values joined by “and” are separate entries in the source; they are usually repeats but may differ in a detail not shown here. Equal values may be shown once.

Assay in all cases: BLI; 6×His-ZapC or its mutants (0.5 µM) loaded on Ni-NTA biosensors, untagged FtsZ or its variants in solution; Octet-Red96, 30°C, 1× Pol buffer (50 mM HEPES-NaOH pH 6.8, 50 mM KCl, 10 mM MgCl2); apparent Kd from the signal at the end of association against concentration, one-site fit; three repeats with mean (X) and SD
Conditions in all cases: both partners purified
(Biolayer interferometry detects binding as a change in optical thickness at a sensor tip.)

In test [1] the target is T1, FtsZ D360Y (untagged) (Escherichia coli, UniProt P0A9A6 1-383, D360Y).
T1 construct: FtsZ of Escherichia coli with D360Y (CTL); Derivative of pLY17 by site-directed mutagenesis; source: E. coli BL21(DE3), plasmid pLY339, purified (Ni-NTA); 6×His-SUMO tag removed with Ulp1; not shown: 6×His-SUMO, N-terminal, cleaved
T1 sequence (looked up): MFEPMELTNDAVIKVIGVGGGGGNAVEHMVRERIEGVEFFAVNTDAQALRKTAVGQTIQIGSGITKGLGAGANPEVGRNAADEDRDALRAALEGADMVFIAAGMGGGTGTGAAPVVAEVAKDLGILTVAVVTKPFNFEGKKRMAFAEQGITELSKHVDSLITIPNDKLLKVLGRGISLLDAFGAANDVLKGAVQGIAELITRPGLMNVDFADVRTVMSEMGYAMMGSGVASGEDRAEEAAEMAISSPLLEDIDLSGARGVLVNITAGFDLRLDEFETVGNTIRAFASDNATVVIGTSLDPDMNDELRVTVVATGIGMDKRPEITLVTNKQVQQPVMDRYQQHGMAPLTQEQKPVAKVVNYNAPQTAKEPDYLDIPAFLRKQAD

The target of test [2] is T2, FtsZ F285S (untagged) (Escherichia coli, UniProt P0A9A6 1-383, F285S).
T2 construct: FtsZ of Escherichia coli with F285S (globular domain); Derivative of pLY17 by site-directed mutagenesis; insert starts at codon 2 as in pLY17; source: E. coli BL21(DE3), plasmid pLY19, purified (Ni-NTA); 6×His-SUMO tag removed with Ulp1; not shown: 6×His-SUMO, N-terminal, cleaved
T2 sequence (looked up): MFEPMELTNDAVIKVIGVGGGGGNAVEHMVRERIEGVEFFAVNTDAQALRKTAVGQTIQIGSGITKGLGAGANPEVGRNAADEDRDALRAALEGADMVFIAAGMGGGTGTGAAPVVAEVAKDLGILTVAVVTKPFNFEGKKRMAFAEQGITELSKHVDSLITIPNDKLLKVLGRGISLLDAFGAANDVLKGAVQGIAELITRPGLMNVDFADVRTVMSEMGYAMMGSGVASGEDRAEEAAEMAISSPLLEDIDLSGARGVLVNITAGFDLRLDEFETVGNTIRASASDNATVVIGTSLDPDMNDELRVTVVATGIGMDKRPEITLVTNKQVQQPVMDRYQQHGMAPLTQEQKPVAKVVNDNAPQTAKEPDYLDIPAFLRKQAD

The target of test [3] is T3, FtsZ 1-316 (untagged) (Escherichia coli, UniProt P0A9A6 1-316).
T3 construct: lacks the entire CTL and the CTP; source: E. coli BL21(DE3), plasmid pLY343, purified (Ni-NTA); 6×His-SUMO tag removed with Ulp1; not shown: 6×His-SUMO, N-terminal, cleaved
T3 sequence (looked up): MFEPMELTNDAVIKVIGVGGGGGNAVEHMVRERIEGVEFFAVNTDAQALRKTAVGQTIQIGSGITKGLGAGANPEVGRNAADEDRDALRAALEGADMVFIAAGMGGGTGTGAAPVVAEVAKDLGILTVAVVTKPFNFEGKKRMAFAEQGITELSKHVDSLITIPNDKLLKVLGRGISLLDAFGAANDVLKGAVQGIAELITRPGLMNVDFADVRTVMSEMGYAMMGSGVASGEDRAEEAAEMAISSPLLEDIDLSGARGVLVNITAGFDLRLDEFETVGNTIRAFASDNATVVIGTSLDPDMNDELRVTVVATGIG

Test [4] addresses T4, FtsZ 1-370 (untagged) (Escherichia coli, UniProt P0A9A6 1-370).
T4 construct: FtsZ of Escherichia coli, residues 1-370; lacks the CTP; Primers BsaI-out-F and 370XbaI-out-R; forward primer starts at codon 2; source: E. coli BL21(DE3), plasmid pLY341, purified (Ni-NTA); 6×His-SUMO tag removed with Ulp1; not shown: 6×His-SUMO, N-terminal, cleaved
T4 sequence (looked up): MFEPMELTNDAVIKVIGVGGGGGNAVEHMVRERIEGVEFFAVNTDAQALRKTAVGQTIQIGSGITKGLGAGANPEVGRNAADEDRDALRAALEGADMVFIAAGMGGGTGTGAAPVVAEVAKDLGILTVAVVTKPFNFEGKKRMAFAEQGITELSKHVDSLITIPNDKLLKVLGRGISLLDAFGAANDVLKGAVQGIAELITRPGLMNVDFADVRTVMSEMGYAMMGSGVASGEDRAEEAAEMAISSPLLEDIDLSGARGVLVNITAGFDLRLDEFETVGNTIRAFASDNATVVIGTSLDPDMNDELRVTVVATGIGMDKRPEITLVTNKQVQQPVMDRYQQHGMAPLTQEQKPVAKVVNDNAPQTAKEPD

B1: 6×His-ZapC (natural protein)
chain: not shown
notes: ZapC, FtsZ-associated protein of Escherichia coli; Construction of pSD323 is not described; also called His-tagged ZapC; source: E. coli, plasmid pSD323 (pQE80, Plac::6×His-ZapC), purified (Ni-NTA); not shown: His6, N-terminal, kept
For the molecule B1, the Kd was 573 nM and 823 nM and 735 nM and 710 nM in test [1]; 5020 nM and 6370 nM and 6130 nM and 5840 nM in test [2]; 1540 nM and 1910 nM and 1290 nM and 1580 nM in test [3]; 1540 nM and 1190 nM and 1260 nM and 1330 nM in test [4].

The values above are taken from article PMC12607630, “ZapC crosslinks FtsZ filaments through a dual-binding mechanism modulated by the intrinsically disordered linker of FtsZ in Escherichia coli” (mBio, 2025).
